Measurements from the DeepSol protein solubility set.

Assay: soluble on expression in E. coli; label from the status in PepcDB or PDB records

Row | Sequence | soluble on expression in E. coli
1 | MTAQLQSESTSKIVLVTGGAGYIGSHTVVELIENGYDCVVADNLSNSTYDSVARLEVLTKHHIPFYEVDLCDRKGLEKVFKEYKIDSVIHFAGLKAVGESTQIPLRYYHNNILGTVVLLELMQQYNVSKFVFSSSATVYGDATRFPNMIPIPEECPLGPTNPYGHTKYAIENILNDLYNSDKKSWKFAILRYFNPIGAHPSGLIGEDPLGIPNNLLPYMAQVAVGRREKLYIFGDDYDSRDGTPIRDYIHVVDLAKGHIAALQYLEAYNENEGLCREWNLGSGKGSTVFEVYHAFCKASGIDLPYKVTGRRAGDVLNLTAKPDRAKRELKWQTELQVEDSCKDLWKWTTENPFGYQLRGVEARFSAEDMRYDARFVTIGAGTRFQATFANLGASIVDLKVNGQSVVLGYENEEGYLNPDSAYIGATIGRYANRISKGKFSLCNKDYQLTVNNGVNANHSSIGSFHRKRFLGPIIQNPSKDVFTAEYMLIDNEKDTEFPGDLLVTIQYTVNVAQKSLEIVYKGKLTAGEATPINLTNHSYFNLNKPYGDTIEGTEIMVRSKKSVDVDKNMIPTGNIVDREIATFNSTKPTVLGPKNPQFDCCFVVDENAKPSQINTLNNELTLIVKAFHPDSNITLEVLSTEPTYQFYTGDFLSAGYEARQGFAIEPGRYIDAINQENWKDCVTLKNGETYGSKIVYRFS | soluble
2 | MKKPELTATSVEKFLIEKFDSVSDLMQLSEGEESRAFSFDVGGRGYVLRVNSCADGFYKDRYVYRHFASAALPIPEVLDIGEFSESLTYCISRRAQGVTLQDLPETELPAVLQPVAEAMDAIAAADLSQTSGFGPFGPQGIGQYTTWRDFICAIADPHVYHWQTVMDDTVSASVAQALDELMLWAEDCPEVRHLVHADFGSNNVLTDNGRITAVIDWSEAMFGDSQYEVANIFFWRPWLACMEQQTRYFERRHPELAGSPRLRAYMLRIGLDQLYQSLVDGNFDDAAWAQGRCDAIVRSGAGTVGRTQIARRSAAVWTDGCVEVLADSGNRRPSTRPRAKE | soluble
3 | GPGSMPKSKRAKIVPLTKTQAKTREDKDKLIERIREALEDYSDVYTFQLHNIRTNILQQIREERAGDSRIFLGNNKVMMIAIGRDEESAQRQNLHKLSPFLTGLCGLLFTNLSKKEVKEYFATVGAPVYARTGQTATESLVLKGGPLPQFPHSMFDHLAKLGLPIKLDRGVIVLLQDTTVCEPGDTLSAEAAQLLKLFGVQSAKFKMDLTAHWTSGVAKKVSSSASKRSEK | soluble
4 | PEKKKRKRGSRGGKKGRKSRIANIPNFEQSLKNLVVSEKILGYGSSGTVVFQGSFQGRPVAVKRMLIDFCDIALMEIKLLTESDDHPNVIRYYCSETTDRFLYIALELCNLNLQDLVESKNVSDENLKLQKEYNPISLLRQIASGVAHLHSLKIIHRDLKPQNILVSTSSRFTADQQTGAENLRILISDFGLCKKLDSGQSSFRTNLNNPSGTSGWRAPELLEESTKRRLTRSIDIFSMGCVFYYILSKGKHPFGDKYSRESNIIRGIFSLDEMKCLHDRSLIAEATDLISQMIDHDPLKRPTAMKVLRHPLFWPKSKKLEFLLKVSDRLEIENRDPPSALLMKFDAGSDFVIPSGDWTVKFDKTFMDNLERYRKYHSSKLMDLLRALRNKYHHFMDLPEDIAELMGPVPDGFYDYFTKRFPNLLIGVYMIVKENLSDDQILREFLYS | soluble
5 | GKDAHVILRSNFTLSKNKILNWEDTKKPYTYLENNGYANNVQRGFVAMGLFKDQQDVEMSPTQFGTVRPGDIKYRDINGDGKITDDDKVPLFAYSGVPQLMYGIGAEFRYKSWTLNVLFKGTGRNKFLYGGSDGRNFDGYMPFNQKDKGNIMTIAYNPENRWISAEYSGNQATENPNARFPRLYYGKNENNTKPSTFWMGDARYLRLQELSLAYNLKVPALQRILGINSMNIQLMCENLAVWDSVNIFDPEQATSCGQAYPLPARYSLQLYLNF | not soluble
6 | MGSDKIHHHHHHMEEIKEQNNRLFLLLSIMIMEFSNAKTESDILQGLLNLVRKVVDIKEVVLVDENKRKIWGRDIDIKRFEEFIDWSIRQSNPVFVEDELGYVGIVPVVKQDRMFGSLIVLLNHQPSMEETEIFKVLSFLSAVVLENIKLYRELEETYNYVNVILNGLPEGIFVYSNGEIKFQNEKFKEENFPDEVLRKAISLSEEAISLRTQRVGEVISGEEFFSITSIPLILGSEVQALTIVENVTESKELERLKRIDRMKTEFIANISHELRTPLTAIKAYAETIYNSLGELDLSTLKEFLEVIIDQSNHLENLLNELLDFSRLERKSLQINREKVDLCDLVESAVNAIKEFASSHNVNVLFESNVPCPVEAYIDPTRIRQVLLNLLNNGVKYSKKDAPDKYVKVILDEKDGGVLIIVEDNGIGIPDHAKDRIFEQFYRVDSSLTYEVPGTGLGLAITKEIVELHGGRIWVESEVGKGSRFFVWIPKDRAGEDNRQDN | not soluble
